Test results from US20140088006A1, “Stem Cell Mobilization and Tissue Repair and Regeneration” (Wellstat Therapeutics Corporation, priority 2011, published 2014).
Values joined by “and” are separate entries in the source; they are usually repeats but may differ in a detail not shown here. Identical values can stand only once.

Tests used:
[1] = system: peripheral blood cells; assay: FACS phenotype of peripheral blood cells after single subcutaneous injection; format: in vivo, C57Bl6 mice; details: for Phenotype Lin−/Sca-1+ / Phenotype Lin−/Sca-1−: 5 mg/kg, mononuclear cells
Experimental: C57Bl6 male mice, from 8 weeks to 4 month of age, from Harlan were used. […] 20 μl of blood was removed from each tube for WBC counts;
200 μl of blood was used for FACS analysis of cells phenotypes: briefly 50 μl of blood was transferred to a 15 ml polypropylene tube containing 1 ml ACK lysis buffer and the tubes left at room temperature for 6 minutes. 50 μl of a 1:50 dilution of Fc block (Pharmingen 01241A) along with 2 ul of anti-CD19FITC (Pharmingen 09654A) and 2 μl of anti-Gr-1PE (Pharmingen 01215A) was added and the tubes left at room temperature for 30 minutes protected from light. The cells were washed with 3 ml FACS buffer, resuspended in 300 μl FACS buffer and kept on ice, protected from light until acquired on the FACSCalibur.
For flow cytometry analysis the blood was stained with antibodies and a phenotype determined by FACS as described before. In addition to the whole blood FACS phenotyping, Ficolled blood was also stained to monitor the Lin−/Sca+ phenotype. The cells were washed with 3 ml FACS buffer, resuspended in 300 μl FACS buffer and kept on ice, protected from light until acquired on the FACSCalibur

[2] = system: hematopoietic stem cells (HSC) and their hematopoietic progenitors (HPC); assay: CFU-GM / CFU-GEMM colony assay of peripheral blood mononuclear cells after single subcutaneous injection; format: in vivo, C57Bl6 mice; details: s.c. 5 mg/kg
Experimental: (§1) C57Bl6 male mice, from 8 weeks to 4 month of age, from Harlan were used. Mice received subcutaneous injections of saline, Compound X (50 μg/kg) or Compound X (250 μg/kg). After 1 and 4 hours, mice were anesthetized and blood was collected through the orbital sinus with heparinized capillary tubes. 20 μl of blood was removed from each tube for WBC counts;
Remaining blood from each group was pooled and mononuclear cells were isolated by density gradient separation. To enumerate HSC and HPC in peripheral blood cells were washed, counted plated in semi-solid Methylcellulose MC3434 (Stem cell technology) at 100,000 per dish (5 dishes/group) and placed in CO2 incubator at 37° C. Colony-forming unit-granulocyte erythroid macrophage megakaryocyte (CFU-GEMM) and Colony-forming unit-granulocyte macrophage (CFU-GM) were detected under inverted microscope 7 and 10 days after.
(§2) In this experiment, C57Bl6 mice received subcutaneous injections of PBS, Compound X (250 μg/kg) or AMD3100 (5 mg/kg). After 1 hr blood was collected through the orbital sinus with heparinized capillary tubes. Blood from each group was pooled, counted and mononuclear cells were isolated by density gradient separation. Cells were washed, counted and plated at 100,000 per dish (5 dishes/group) for CFU-GEMM and CFU-GM colonies. CFU-GEMM colonies were scored on day 14, while CFU-GM colonies on day 7 after plating in MC3434 (Stem cell Technology).

[3] = system: human umbilical cord blood CD34+ cells; assay: Transwell migration of CD34+ cells toward SDF-1α; format: cell-based; details: 10 μg/mL; control and Compound X treated cells; 100 ng/mL SDF-1α; 4 hours
Experimental: CD34^+ cell migration toward 100 ng/mL SDF-1α in a Corning Transwell device (24 well format, 5 μm pore size, polycarbonate membrane) was studied with and without Compound X and in the presence or absence of either anti-CXCR4 antibody or the CXCR4 antagonist AMD3100.
The CD34^+ population of cells from human umbilical cord blood was obtained from Lonza, defrosted and expanded ex vivo with cytokine cocktail for 6 days according to standard procedures. Briefly, 10 wells of two 12 well dishes were seeded at a density of 8×10^4 cells per well in 2 mL of CellGenix serum free growth medium (SCGM). Cells were allowed to expand in a 37° C. incubator (5% CO2, 86% RH) for 6 days. During the expansion, the 10 wells of one of the two plates received treatments of Compound X to a final concentration of 5 ng/mL (10 μL from freshly prepared 1 μg/mL stock in SCGM) at 24 hours and 72 hours after initiation of the culture.
3 hours prior to the start of the migration assay, both control and Compound X expanded cells were pulsed with either 0, 5 ng/mL or 5 μg/mL Compound X. Migration assay was performed according to the method described (Tavor et al. 2005). Cells were centrifuged for 5 minutes at 1100 RPM and resuspended at a density of 2×10^6 cells/mL in CellGenix SCGM serum free medium containing 1% Fraction V BSA either in the presence or absence of 5 ng/mL or 5 μg/mL Compound X for 3 hours. The feeder tray (bottom) was prepared with 600 μL of serum free SCGM supplemented with 1% BSA in the presence or absence of SDF-1α. All treatments were conducted in triplicate. The wells of the migration chamber (top) received 100 μL of cells from the 2×10^6 cells/mL suspensions, preincubated with 5 ng/mL or 5 μg/mL Compound X or Control. All treatments were conducted in triplicates. The plates were placed in a 37° C. incubator (5% CO2, 86% RH) and cells were allowed to migrate for 4 hours. […]
The cells were thawed at room temperature. […] 150 μL of the resulting cell lysates were transferred to a new 96 well plate and the fluorescence was read on a […] SpectraMax M2 fluorimeter (ex 485, em 538). […]

[4] = system: white blood cells in peripheral blood; assay: White blood cell count in peripheral blood after single subcutaneous injection; format: in vivo, C57Bl6 mice; details: s.c. 5 mg/kg; 1 hr; pooled blood
Experimental: as §1, §2

[5] = system: HSC and HPC; assay: CFU-GM / CFU-GEMM colony assay after 4 daily injections of G-CSF and Compound X; format: in vivo, mice; details: for CFU-GEMM numbers, MEAN / CFU-GM numbers, MEAN / CFU-GEMM numbers / CFU-GM numbers: 5 μg/mouse each agent s.c. daily for 4 days; for CFU-GEMM numbers / CFU-GM numbers: individual dishes; for Fold increase in number of CFU-GM / Fold increase in number of CFU-Mix (CFU-GEMM): multiple injections, 5 μg/mouse each agent
Experimental: Compound X and Neupogen (rG-CSF Amgen, lot# P043601) were diluted in PBS. Mice received subcutaneous injections of PBS, Compound X (5 μg/mouse), G-CSF (5 μg/mouse) or Compound X (5 μg/mouse)+G-CSF (5 μg/mouse) for four consecutive days. […] Mononuclear cells were isolated by density gradient separation from pooled blood. […] Blood was also collected and processed on day 8 for colony assay. Results are shown in Tables 10, 11, and 12 and in FIG. 5.

[6] = system: white blood cells in peripheral blood; assay: White blood cell count after 4 daily injections of G-CSF and Compound X; format: in vivo, mice; details: 5 μg/mouse each agent s.c. daily for 4 days, pooled blood
Experimental: Compound X and Neupogen (rG-CSF Amgen, lot# P043601) were diluted in PBS. Mice received subcutaneous injections of PBS, Compound X (5 μg/mouse), G-CSF (5 μg/mouse) or Compound X (5 μg/mouse)+G-CSF (5 μg/mouse) for four consecutive days. On the last day of injections, 1 hour post injections, blood was collected through the orbital sinus with heparinized capillary tubes. Blood was pooled from 3 mice/group and white blood cell counts were obtained. Mononuclear cells were isolated by density gradient separation from pooled blood. Cells were washed, counted and plated at 100,000 per dish (5 dishes/group) for CFU-mix and CFU-GM colonies. Blood was also collected and processed on day 8 for colony assay. Results are shown in Tables 10, 11, and 12 and in FIG. 5.

[7] = 1 hour, individual dishes, 5 mg/kg

c1cc(CN2CCCNCCNCCCNCC2)ccc1CN1CCCNCCNCCCNCC1 [AMD3100, reference compound]
Phenotype Lin−/Sca-1+ ([1]; 1-hour): 0.6% | Phenotype Lin−/Sca-1− ([1]; 1-hour): 2.8% | Phenotype Lin−/Sca-1+ ([1]; 30-min): 0.5% | Phenotype Lin−/Sca-1− ([1]; 30-min): 2.1% | mobilization of lineage negative progenitors ([1]; s.c. 5 mg/kg, 30 min and 1 hr): up to 3 times | CFU-GEMM, MEAN ([2]; 1 hour): 6.2 per 100,000 cells | CFU-GM (day 7), MEAN ([2]; 1 hour): 20.6 per 100,000 cells | CFU-GEMM [2, 7]: 5 per 100,000 cells and 4 per 100,000 cells (2×) and 11 per 100,000 cells and 7 per 100,000 cells | CFU-GM (day 7) [2, 7]: 19 per 100,000 cells (3×) and 26 per 100,000 cells and 20 per 100,000 cells | number of circulating committed precursors of granulocytes and macrophages—CFU-GM ([2]; 1 hr): substantial increase | increase of CFU-GEMM number in peripheral blood ([2]; 1 hr, vs PBS): 6.2 times | CD34+ cell Transwell migration toward SDF-1α [3]: strong inhibition | White blood cell count: Cell Count [4]: 1.14e+07 mL⁻¹

B1: G-CSF: Neupogen (rG-CSF Amgen), most common mobilizing agent for clinical uses (protein, chains of the INN, looked up)
chain: MTPLGPASSLPQSFLLKCLEQVRKIQGDGAALQEKLCATYKLCHPEELVLLGHSLGIPWAPLSSCPSQALQLAGCLSQLHSGLFLYQGLLQALEGISPELGPTLDTLQLDVADFATTIWQQMEELGMAPALQPTQGAMPAFASAFQRRAGGVLVASHLQSFLEVSYRVLRHLAQP
CFU-GEMM numbers, MEAN ([5]; Day 4): 17.6 per 100000 mononuclear cells | CFU-GM numbers, MEAN ([5]; Day 4): 60.6 per 100000 mononuclear cells | CFU-GEMM numbers ([5]; Day 4): 20 per 100000 mononuclear cells and 12 per 100000 mononuclear cells (2×) and 15 per 100000 mononuclear cells and 29 per 100000 mononuclear cells | CFU-GM numbers ([5]; Day 4): 62 per 100000 mononuclear cells and 58 per 100000 mononuclear cells and 63 per 100000 mononuclear cells and 52 per 100000 mononuclear cells and 68 per 100000 mononuclear cells | CFU-GEMM numbers, MEAN ([5]; Day 8): 4 per 100000 mononuclear cells | CFU-GM numbers, MEAN ([5]; Day 8): 15.0 per 100000 mononuclear cells | CFU-GEMM numbers ([5]; Day 8): 5 per 100000 mononuclear cells and 4 per 100000 mononuclear cells (3×) and 3 per 100000 mononuclear cells | CFU-GM numbers ([5]; Day 8): 12 per 100000 mononuclear cells and 15 per 100000 mononuclear cells and 11 per 100000 mononuclear cells and 21 per 100000 mononuclear cells and 16 per 100000 mononuclear cells | Fold increase in number of CFU-GM ([5]; Day 4): 12 Fold | Fold increase in number of CFU-Mix (CFU-GEMM) ([5]; Day 4, 1 hr after the last injection): 12.5 Fold | Fold increase in number of CFU-GM ([5]; Day 8): 6 Fold | Fold increase in number of CFU-Mix (CFU-GEMM) ([5]; Day 8): 5 Fold | White Blood Cell counts: Cell Count ([6]; Day 4, 1 hour post injection): 14.6 ×10^6 | White Blood Cell counts: Cell Count ([6]; Day 8): 5.0 ×10^6
